Starred links: 1 amine or outer side, 2 acyl side, 3 side chain; linkers in the order of their positions; H or OH if unused. Non-standard residues stand in square brackets, D forms with d. No end group written: not given here. *: point of attachment. dBip = N[C@H](Cc1ccc(-c2ccccc2)cc1)C(=O)O; Oic = O=C(O)[C@@H]1C[C@@H]2CCCC[C@@H]2N1; Phe(4-Cl) = N[C@@H](Cc1ccc(Cl)cc1)C(=O)O; dPhe(4-Cl) = N[C@H](Cc1ccc(Cl)cc1)C(=O)O; Phe(4-I) = N[C@@H](Cc1ccc(I)cc1)C(=O)O; γGlu = O=C(O)[C@H](CCC(=O)[*:2])N[*:1]; d1Nal = N[C@H](Cc1cccc2ccccc12)C(=O)O; NMeR = CN[C@@H](CCCNC(=N)N)C(=O)O; Tridecanoyl = CCCCCCCCCCCCC(=O)*; hArg = N=C(N)NCCCC[C@H](N)C(=O)O; Cha = N[C@@H](CC1CCCCC1)C(=O)O; NMeL = CN[C@@H](CC(C)C)C(=O)O; code O = not defined here; Nle = CCCC[C@H](N)C(=O)O; Orn = NCCC[C@H](N)C(=O)O; AEEA = NCCOCCOCC(=O)O; Aib = CC(C)(N)C(=O)O; BLeu = β-leucine; Sar = CNCC(=O)O
T1: rat APJ receptor (rat, UniProt Q9JHG3 1-377)
T1 sequence (looked up): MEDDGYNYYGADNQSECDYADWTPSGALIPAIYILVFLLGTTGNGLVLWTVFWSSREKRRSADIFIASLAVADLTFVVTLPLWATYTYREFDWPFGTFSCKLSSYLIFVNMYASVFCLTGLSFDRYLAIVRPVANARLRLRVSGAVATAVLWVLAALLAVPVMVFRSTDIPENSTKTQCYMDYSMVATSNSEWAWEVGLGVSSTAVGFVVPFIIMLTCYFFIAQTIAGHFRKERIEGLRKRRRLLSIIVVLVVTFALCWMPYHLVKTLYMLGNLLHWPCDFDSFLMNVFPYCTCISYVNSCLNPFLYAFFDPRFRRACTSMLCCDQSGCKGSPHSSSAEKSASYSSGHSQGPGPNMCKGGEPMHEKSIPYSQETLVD

T2: human APJ receptor (human, UniProt P35414 1-380)
T2 sequence (looked up): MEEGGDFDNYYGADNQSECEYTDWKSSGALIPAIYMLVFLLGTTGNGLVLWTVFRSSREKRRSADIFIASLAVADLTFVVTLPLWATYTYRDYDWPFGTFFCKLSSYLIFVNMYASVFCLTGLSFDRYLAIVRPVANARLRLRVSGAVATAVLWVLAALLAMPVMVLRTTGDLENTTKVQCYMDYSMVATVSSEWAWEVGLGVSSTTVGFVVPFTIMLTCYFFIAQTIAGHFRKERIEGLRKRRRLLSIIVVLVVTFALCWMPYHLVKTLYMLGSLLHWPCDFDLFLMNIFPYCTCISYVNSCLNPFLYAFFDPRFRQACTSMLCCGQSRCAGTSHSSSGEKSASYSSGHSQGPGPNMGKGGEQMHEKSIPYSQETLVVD

B1: apelin polypeptide SEQ ID NO: 673 (peptide)
peptide: [code O]F[hArg][NMeR]Q[NMeR]P[NMeR][Cha]SHKG[Oic][Nle]P[Phe(4-Cl)]
modifications: reading uncertain
B2: apelin polypeptide SEQ ID NO: 678 (peptide)
peptide: [Orn]F[hArg][hArg]Q[hArg]P[hArg][Cha][Sar]HKG[Oic][Nle]P[Phe(4-Cl)]
B3: apelin polypeptide SEQ ID NO: 278 (peptide)
peptide: Tridecanoyl-[γGlu][AEEA][AEEA][BLeu][hArg]P[dR][Cha]SHKG[Oic][Nle]P[Phe(4-Cl)]-OH
B4: apelin polypeptide SEQ ID NO: 281 (peptide)
peptide: Tridecanoyl-[γGlu][AEEA][AEEA][dQ][hArg]P[dR][BLeu]SHKG[Oic][Nle]P[dPhe(4-Cl)]-OH
B5: apelin polypeptide SEQ ID NO: 22 (peptide)
peptide: Ac-[hArg][hArg]Q[dR]P[NMeR][Cha]SHKG[Oic][Phe(4-I)]P[dBip]-OH
SMILES: CC(=O)N[C@@H](CCCCNC(=N)N)C(=O)N[C@@H](CCCCNC(=N)N)C(=O)N[C@@H](CCC(N)=O)C(=O)N[C@H](CCCNC(=N)N)C(=O)N1CCC[C@H]1C(=O)N(C)[C@@H](CCCNC(=N)N)C(=O)N[C@@H](CC1CCCCC1)C(=O)N[C@@H](CO)C(=O)N[C@@H](Cc1c[nH]cn1)C(=O)N[C@@H](CCCCN)C(=O)NCC(=O)N1[C@H](C(=O)N[C@@H](Cc2ccc(I)cc2)C(=O)N2CCC[C@H]2C(=O)N[C@H](Cc2ccc(-c3ccccc3)cc2)C(=O)O)C[C@@H]2CCCC[C@@H]21
B6: apelin polypeptide SEQ ID NO: 672 (peptide)
peptide: [Orn]F[hArg][hArg]Q[NMeR]P[NMeR][Cha]SHKG[Oic][Nle]P[Phe(4-Cl)]
B7: apelin polypeptide SEQ ID NO: 284 (peptide)
peptide: Tridecanoyl-[γGlu][AEEA][AEEA]Q[dR]P[NMeR][Cha]SHKG[Oic][Nle]P[dPhe(4-Cl)]-OH
SMILES: CCCCCCCCCCCCC(=O)N[C@@H](CCC(=O)NCCOCCOCC(=O)NCCOCCOCC(=O)N[C@@H](CCC(N)=O)C(=O)N[C@H](CCCNC(=N)N)C(=O)N1CCC[C@H]1C(=O)N(C)[C@@H](CCCNC(=N)N)C(=O)N[C@@H](CC1CCCCC1)C(=O)N[C@@H](CO)C(=O)N[C@@H](Cc1c[nH]cn1)C(=O)N[C@@H](CCCCN)C(=O)NCC(=O)N1[C@H](C(=O)N[C@@H](CCCC)C(=O)N2CCC[C@H]2C(=O)N[C@H](Cc2ccc(Cl)cc2)C(=O)O)C[C@@H]2CCCC[C@@H]21)C(=O)O
B8: apelin polypeptide SEQ ID NO: 282 (peptide)
peptide: Tridecanoyl-[γGlu][AEEA][AEEA][dQ][hArg]P[dR][Cha]SHKG[Oic][Nle][Phe(4-Cl)]-OH
SMILES: CCCCCCCCCCCCC(=O)N[C@@H](CCC(=O)NCCOCCOCC(=O)NCCOCCOCC(=O)N[C@H](CCC(N)=O)C(=O)N[C@@H](CCCCNC(=N)N)C(=O)N1CCC[C@H]1C(=O)N[C@H](CCCNC(=N)N)C(=O)N[C@@H](CC1CCCCC1)C(=O)N[C@@H](CO)C(=O)N[C@@H](Cc1c[nH]cn1)C(=O)N[C@@H](CCCCN)C(=O)NCC(=O)N1[C@H](C(=O)N[C@@H](CCCC)C(=O)N[C@@H](Cc2ccc(Cl)cc2)C(=O)O)C[C@@H]2CCCC[C@@H]21)C(=O)O
B9: apelin polypeptide SEQ ID NO: 279 (peptide)
peptide: Tridecanoyl-[γGlu][AEEA][AEEA]Q[NMeR]P[dR][Cha]SHKG[Oic][Nle]P[Phe(4-Cl)]-OH
SMILES: CCCCCCCCCCCCC(=O)N[C@@H](CCC(=O)NCCOCCOCC(=O)NCCOCCOCC(=O)N[C@@H](CCC(N)=O)C(=O)N(C)[C@@H](CCCNC(=N)N)C(=O)N1CCC[C@H]1C(=O)N[C@H](CCCNC(=N)N)C(=O)N[C@@H](CC1CCCCC1)C(=O)N[C@@H](CO)C(=O)N[C@@H](Cc1c[nH]cn1)C(=O)N[C@@H](CCCCN)C(=O)NCC(=O)N1[C@H](C(=O)N[C@@H](CCCC)C(=O)N2CCC[C@H]2C(=O)N[C@@H](Cc2ccc(Cl)cc2)C(=O)O)C[C@@H]2CCCC[C@@H]21)C(=O)O
B10: apelin polypeptide SEQ ID NO: 675 (peptide)
peptide: Q[hArg]P[NMeR][Cha]SHKG[Oic][Nle]P[Phe(4-Cl)]
B11: apelin polypeptide SEQ ID NO: 285 (peptide)
peptide: Tridecanoyl-[γGlu][AEEA][AEEA]Q[dR]P[NMeR][Cha]SHKG[Oic][Nle][d1Nal]-OH
SMILES: CCCCCCCCCCCCC(=O)N[C@@H](CCC(=O)NCCOCCOCC(=O)NCCOCCOCC(=O)N[C@@H](CCC(N)=O)C(=O)N[C@H](CCCNC(=N)N)C(=O)N1CCC[C@H]1C(=O)N(C)[C@@H](CCCNC(=N)N)C(=O)N[C@@H](CC1CCCCC1)C(=O)N[C@@H](CO)C(=O)N[C@@H](Cc1c[nH]cn1)C(=O)N[C@@H](CCCCN)C(=O)NCC(=O)N1[C@H](C(=O)N[C@@H](CCCC)C(=O)N[C@H](Cc2cccc3ccccc23)C(=O)O)C[C@@H]2CCCC[C@@H]21)C(=O)O
B12: apelin polypeptide SEQ ID NO: 670 (peptide)
peptide: [Orn]F[hArg][NMeR]Q[hArg]P[hArg][Cha]SHKG[Oic][Nle]P[Phe(4-Cl)]
B13: apelin polypeptide SEQ ID NO: 283 (peptide)
peptide: Tridecanoyl-[γGlu][AEEA][AEEA][dQ][hArg]P[dR][Cha]SHKG[Oic][Nle][dPhe(4-Cl)]-OH
SMILES: CCCCCCCCCCCCC(=O)N[C@@H](CCC(=O)NCCOCCOCC(=O)NCCOCCOCC(=O)N[C@H](CCC(N)=O)C(=O)N[C@@H](CCCCNC(=N)N)C(=O)N1CCC[C@H]1C(=O)N[C@H](CCCNC(=N)N)C(=O)N[C@@H](CC1CCCCC1)C(=O)N[C@@H](CO)C(=O)N[C@@H](Cc1c[nH]cn1)C(=O)N[C@@H](CCCCN)C(=O)NCC(=O)N1[C@H](C(=O)N[C@@H](CCCC)C(=O)N[C@H](Cc2ccc(Cl)cc2)C(=O)O)C[C@@H]2CCCC[C@@H]21)C(=O)O
B14: apelin polypeptide SEQ ID NO: 671 (peptide)
peptide: [Orn]F[hArg][hArg]Q[NMeR]P[hArg][Cha]SHKG[Oic][Nle]P[Phe(4-Cl)]
B15: apelin polypeptide SEQ ID NO: 677 (peptide)
peptide: [Orn]F[hArg][hArg]Q[hArg][Aib][hArg][Cha]SHKG[Oic][Nle]P[Phe(4-Cl)]
B16: apelin polypeptide SEQ ID NO: 21 (peptide)
peptide: Ac-[hArg][hArg]Q[hArg][Oic][dR][NMeL]SHKG[Oic][Phe(4-I)]P[dBip]-OH
SMILES: CC(=O)N[C@@H](CCCCNC(=N)N)C(=O)N[C@@H](CCCCNC(=N)N)C(=O)N[C@@H](CCC(N)=O)C(=O)N[C@@H](CCCCNC(=N)N)C(=O)N1[C@H](C(=O)N[C@H](CCCNC(=N)N)C(=O)N(C)[C@@H](CC(C)C)C(=O)N[C@@H](CO)C(=O)N[C@@H](Cc2c[nH]cn2)C(=O)N[C@@H](CCCCN)C(=O)NCC(=O)N2[C@H](C(=O)N[C@@H](Cc3ccc(I)cc3)C(=O)N3CCC[C@H]3C(=O)N[C@H](Cc3ccc(-c4ccccc4)cc3)C(=O)O)C[C@@H]3CCCC[C@@H]32)C[C@@H]2CCCC[C@@H]21
B17: apelin polypeptide SEQ ID NO: 669 (peptide)
peptide: [Orn]F[NMeR][hArg]Q[hArg]P[hArg][Cha]SHKG[Oic][Nle]P[Phe(4-Cl)]
B18: apelin polypeptide SEQ ID NO: 676 (peptide)
peptide: [Orn]F[hArg][hArg]Q[hArg][Sar][hArg][Cha]SHKG[Oic][Nle]P[Phe(4-Cl)]
B19: apelin polypeptide SEQ ID NO: 280 (peptide)
peptide: Tridecanoyl-[γGlu][AEEA][AEEA][dQ][NMeR]P[dR][Cha]SHKG[Oic][Nle]P[Phe(4-Cl)]-OH
SMILES: CCCCCCCCCCCCC(=O)N[C@@H](CCC(=O)NCCOCCOCC(=O)NCCOCCOCC(=O)N[C@H](CCC(N)=O)C(=O)N(C)[C@@H](CCCNC(=N)N)C(=O)N1CCC[C@H]1C(=O)N[C@H](CCCNC(=N)N)C(=O)N[C@@H](CC1CCCCC1)C(=O)N[C@@H](CO)C(=O)N[C@@H](Cc1c[nH]cn1)C(=O)N[C@@H](CCCCN)C(=O)NCC(=O)N1[C@H](C(=O)N[C@@H](CCCC)C(=O)N2CCC[C@H]2C(=O)N[C@@H](Cc2ccc(Cl)cc2)C(=O)O)C[C@@H]2CCCC[C@@H]21)C(=O)O

Each binder was assayed against T1, rat APJ receptor (assay: cell-based or functional assay).

| EC50 Rat APJ Receptor [nM] | Binder |
| --- | --- |
| 1.34 | B1 |
| 2.11 | B2 |
| 14.5 | B3 |
| 87.3 | B4 |
| 4.52 | B5 |
| 0.845 | B6 |
| > 4170 | B7 |
| 13.3 | B8 |
| 19.3 | B9 |
| 0.189 | B10 |
| 122 | B11 |
| 0.254 | B12 |
| 15.6 | B13 |
| 0.387 | B14 |
| 3.48 | B15 |
| 1.8 | B16 |
| 5.59 | B17 |
| 0.84 | B18 |
| 4.47 | B19 |

Each binder was assayed against T2, human APJ receptor (assay: cell-based or functional assay).

| EC50 Human APJ Receptor [nM] | Binder |
| --- | --- |
| 1.34 | B1 |
| 0.664 | B2 |
| 10.1 | B3 |
| 14.8 | B4 |
| 1.52 | B5 |
| 0.445 | B6 |
| > 4170 | B7 |
| 5.79 | B8 |
| 3.29 | B9 |
| 0.159 | B10 |
| 8.22 | B11 |
| 0.131 | B12 |
| 9.74 | B13 |
| 0.162 | B14 |
| 3.5 | B15 |
| 0.57 | B16 |
| 5.3 | B17 |
| 0.762 | B18 |
| 2.04 | B19 |

Reference: US10941182 (Amgen, dated 2021)
